How the values were obtained:
Assay in all cases: cell_activity
[1] = tested on: FAD2_T04_Left_C11 + FAD2_T03_Right_C11 TALEN pair; details: yeast reporter cleavage
[2] = tested on: FAD2_T03_Left_C11 + FAD2_T03_Right_C11 TALEN pair; details: yeast reporter cleavage
[3] = tested on: FAD2_T03_Left_C40 + FAD2_T03_Right_C40 TALEN pair; details: yeast reporter cleavage
[4] = tested on: FAD2_T02_Left_C40 + FAD2_T01_Right_C40 TALEN pair; details: yeast reporter cleavage
[5] = tested on: FAD2_T01_Left_C11 + FAD2_T01_Right_C11 TALEN pair; details: yeast reporter cleavage
[6] = tested on: FAD2_T04_Left_C40 + FAD2_T03_Right_C40 TALEN pair; details: yeast reporter cleavage
[7] = tested on: FAD2_T01_Left_C40 + FAD2_T01_Right_C40 TALEN pair; details: yeast reporter cleavage
[8] = tested on: FAD2_T02_Left_C11 + FAD2_T01_Right_C11 TALEN pair; details: yeast reporter cleavage
[9] = tested on: FAD2_T03_Left_C11 TALEN monomer (synthetic (TAL effector-nuclease fusion)?); details: yeast reporter; value of pair with T03_Right_C11 on Target 3
[10] = tested on: FAD2_T03_Left_C40 TALEN monomer (synthetic (TAL effector-nuclease fusion)?); details: yeast reporter; value of pair with T03_Right_C40 on Target 3
[11] = tested on: FAD2_T01_Left_C11 TALEN monomer (synthetic (TAL effector-nuclease fusion)?); details: yeast reporter; value of pair with T01_Right_C11 on Target 1
[12] = tested on: FAD2_T01_Left_C40 TALEN monomer (synthetic (TAL effector-nuclease fusion)?); details: yeast reporter; value of pair with T01_Right_C40 on Target 1
[13] = tested on: FAD2_T04_Left_C11 TALEN monomer (synthetic (TAL effector-nuclease fusion)?); details: yeast reporter; value of pair with T03_Right_C11 on Target 4
[14] = tested on: FAD2_T04_Left_C40 TALEN monomer (synthetic (TAL effector-nuclease fusion)?); details: yeast reporter; value of pair with T03_Right_C40 on Target 4
[15] = tested on: FAD2_T02_Left_C40 TALEN monomer (synthetic (TAL effector-nuclease fusion)?); details: yeast reporter; value of pair with T01_Right_C40 on Target 2
[16] = tested on: FAD2_T02_Left_C11 TALEN monomer (synthetic (TAL effector-nuclease fusion)?); details: yeast reporter; value of pair with T01_Right_C11 on Target 2
[17] = tested on: FAD2_T01_Right_C11 TALEN monomer (synthetic (TAL effector-nuclease fusion)?); details: yeast reporter; value of pair with T01_Left_C11 on Target 1
[18] = tested on: FAD2_T01_Right_C40 TALEN monomer (synthetic (TAL effector-nuclease fusion)?); details: yeast reporter; value of pair with T01_Left_C40 on Target 1
[19] = tested on: FAD2_T03_Right_C40 TALEN monomer (synthetic (TAL effector-nuclease fusion)?); details: yeast reporter; value of pair with T03_Left_C40 on Target 3
[20] = tested on: FAD2_T03_Right_C11 TALEN monomer (synthetic (TAL effector-nuclease fusion)?); details: yeast reporter; value of pair with T03_Left_C11 on Target 3
[21] = left site truncated in Target 3
[22] = left site truncated in Target 1

Sequence	activity (relative to I-SceI) [2]	activity (relative to I-SceI) [3]	activity (relative to I-SceI) [4]	activity (relative to I-SceI) [5]	activity (relative to I-SceI) [7]	activity (relative to I-SceI) [8]	activity (relative to I-SceI) [1]	activity (relative to I-SceI) [6]	further results
CTCATGGAAAATAAGCCATCGCCGCCATCACTCCAACACAGGTTCCCTTGACCGTGATGAAGTGTTTGTCCC (double strand) [FAD2 Target 3]	0.65	0.63	0	0	0	0	–	–	activity (relative to I-SceI) [1, 21]: 0; activity (relative to I-SceI) [6, 21]: 0
CTCATGGAAAATAAGCCAT (double strand) [FAD2_T03 left half-site]	–	–	–	–	–	–	–	–	activity (relative to I-SceI) [9]: 0.65; activity (relative to I-SceI) [10]: 0.63
GCCACCACCTACTTCCACCTCCT (double strand) [FAD2_T01 left half-site]	–	–	–	–	–	–	–	–	activity (relative to I-SceI) [11]: 0.73; activity (relative to I-SceI) [12]: 0.79
ATTTCTCATGGAAAATAAGCCAT (double strand) [FAD2_T04 left half-site]	–	–	–	–	–	–	–	–	activity (relative to I-SceI) [13]: 0.54; activity (relative to I-SceI) [14]: 0.52
ACATTGCCACCACCTACTTCCACCTCCTTCCTCAACCCTTTTCCCTCATTGCATGGCCAATCT (double strand) [FAD2 Target 2]	0	0	0.96	0.87	0.73	0.97	0	0	–
ATTTCTCATGGAAAATAAGCCATCGCCGCCATCACTCCAACACAGGTTCCCTTGACCGTGATGAAGTGTTTGTCCC (double strand) [FAD2 Target 4]	0.53	0.51	0	0	0	0	0.54	0.52	–
ACATTGCCACCACCTACTTCCACCT (double strand) [FAD2_T02 left half-site]	–	–	–	–	–	–	–	–	activity (relative to I-SceI) [15]: 0.96; activity (relative to I-SceI) [16]: 0.97
ATTGCATGGCCAATCT (double strand) [FAD2_T01/T02 right half-site]	–	–	–	–	–	–	–	–	activity (relative to I-SceI) [17]: 0.73; activity (relative to I-SceI) [18]: 0.79
ACCGTGATGAAGTGTTTGTCCC (double strand) [FAD2_T03/T04 right half-site]	–	–	–	–	–	–	–	–	activity (relative to I-SceI) [19]: 0.63; activity (relative to I-SceI) [20]: 0.65
GCCACCACCTACTTCCACCTCCTTCCTCAACCCTTTTCCCTCATTGCATGGCCAATCT (double strand) [FAD2 Target 1]	0	0	–	0.73	0.79	–	0	0	activity (relative to I-SceI) [4, 22]: 0; activity (relative to I-SceI) [8, 22]: 0

Source: patent US20140370558
